Test results taken from the supplement of paper PMC9170038.

Test system: MS2 coat protein
Experiment: apparent KD of MS2 coat protein; designed switch direction (-1 OFF switch, 1 ON switch): -1; higher = weaker reporter binding
Summary of the method: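 Normalised cluster fluorescence was curve-fitted, and each design's median over clusters is its apparent KD. Before this, SNAP-549-labelled MS2 coat protein was titrated from 0.7 or 1.5 nM, doubling to 3 µM, over RNA switches transcribed on Illumina chips by stalled E. coli RNA polymerase. Titrations had no input, 200 uM small-molecule ligand, or an oligonucleotide input, and steps lasted 0.8–1.5 h (lowest) to 10–20 min (highest).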

[1] = input ligand: microRNA oligo, concentration not stated
[2] = Eterna round: R95, input ligand: microRNA oligo, concentration not stated
[3] = Eterna round: R95, input ligand: FMN 200 uM
[4] = Eterna round: R95, input ligand: none

CAUGUGUGAGGAUAUCCUAGACUAAUGGAGACGCUACCGUGGGAGAAGGUACAUGAGGAUCACCCAUGUGGACC [Eternabot (L1) Solution 88] (Eterna round: R97, puzzle: Exclusion 4)
apparent KD of MS2 coat protein (input ligand: FMN 200 uM): 32.7 nM
apparent KD of MS2 coat protein (input ligand: none): 32.2 nM

CCUCGCCCUCUUGCACAUGAGGAUCACCCAUGUUUUACGUACUAGGAUAUAGCUAUGUUCAAUCGUUAGAAGGAGUUCAUGGAU [Eternabot solution 37] (Eterna round: R96, puzzle: Exclusion NG 3)
apparent KD of MS2 coat protein [1]: 77.4 nM

GGAUAUAACGUAGGAUAUGAGCGCAACUGACGAUCAGAAGGACGACAUGAGGAUCACCCAUGUGAUCUAUCAAUAUUAUACAUG [Prohibition 95 - Jieux - Exclusion NG 1] (Eterna round: R96, puzzle: Exclusion NG 1)
apparent KD of MS2 coat protein (input ligand: FMN 200 uM): 590 nM
apparent KD of MS2 coat protein [1]: 495 nM
apparent KD of MS2 coat protein (input ligand: none): 977 nM

UAUGGUAAAGUCAGGAUAUACGUGCAGUUUUCUAGGUAGAAGGGACAUGAGGAUCACCCAUGUAUGGUAGUGUU [Ex4 #46] (Eterna round: R97, puzzle: Brourd's mod of Exclusion 4)
apparent KD of MS2 coat protein (input ligand: FMN 200 uM): 95.1 nM
apparent KD of MS2 coat protein (input ligand: none): 83.5 nM

GCCGGUGAUCUAACCCGUAACAUGAGGAUCACCCAUGUAAGCUCGGGUUCUACAGAACCCGAUAUUAGCUCGUCAGU [Eternabot (Original) Solution 3] (Eterna round: R97, puzzle: Sensor, turn-off variant 1)
apparent KD of MS2 coat protein (input ligand: FMN 200 uM): 599 nM
apparent KD of MS2 coat protein (input ligand: none): 894 nM

ACAAGCUUUUAGAUUCUUAACAUGAGGAUCACCCAUGUGCUCGUCUUAUUGGCCGGCGGGCCGCCGGAAAAGCUUGU (Eterna round: R97, puzzle: Sensor, turn-off variant 1)
apparent KD of MS2 coat protein (input ligand: FMN 200 uM): 283 nM
apparent KD of MS2 coat protein (input ligand: none): 408 nM

UAUACACAUGAGGAUCACCCAUGUGAGGAUAUGUACAACAACCCGACGGUGUUGUUGUACAGAAGGCACAAAUA [JR_Exclusion1_Sub027] (puzzle: Exclusion 1)
apparent KD of MS2 coat protein [2]: 78.9 nM

UUCCUACUUGAGGAUCACCCAAGUCAGGAUAUCCAUAGCCGACACUCUUUUCGGAACGGGAGAAGGGACUUGGU [Tiisatbi] (Eterna round: R97, puzzle: Exclusion 1)
apparent KD of MS2 coat protein (input ligand: FMN 200 uM): 97.5 nM
apparent KD of MS2 coat protein (input ligand: none): 37.2 nM

GUAAGUUCAGGAUAUGAUGAAUUAAACAUGAGGAUCACCCAUGUAGAUCCUGAAUUAACAUCAGAAGGGAAUAUUU [JL-ex5-4.53 Brourd mod] (Eterna round: R97, puzzle: Exclusion 5)
apparent KD of MS2 coat protein (input ligand: FMN 200 uM): 22.2 nM
apparent KD of MS2 coat protein (input ligand: none): 15.5 nM

CCGGAACAUGAGGAUCACCCAUGUGAGGAUAUCGUACGUUCGUCGAAAGACGAUCGUACGAGAAGGCAUGCCGG [Eli x1 4.34] (Eterna round: R97, puzzle: Exclusion 1)
apparent KD of MS2 coat protein (input ligand: FMN 200 uM): 19.6 nM
apparent KD of MS2 coat protein (input ligand: none): 27.7 nM

GAGUACUCAGGAUAUGCAUGAGUAGUGAUGUAGAGAGUGUGACAUGAGGAUCACCCAUGUAGAAGGGAGGAAUG [Version #1] (Eterna round: R97, puzzle: Exclusion 2)
apparent KD of MS2 coat protein (input ligand: FMN 200 uM): 338 nM
apparent KD of MS2 coat protein (input ligand: none): 105 nM

CUGCUCCGUGUAGGAUAUGCGCGCAACCAACGCGCAGAAGGACAUGAGGAUCACCCAUGUAUGUUAUUAUCACGUGAAGCGUCC [Design 30] (Eterna round: R96, puzzle: Exclusion NG 1)
apparent KD of MS2 coat protein (input ligand: FMN 200 uM): 56.7 nM
apparent KD of MS2 coat protein [1]: 19.9 nM
apparent KD of MS2 coat protein (input ligand: none): 18.2 nM

AGCUGUGGCCGAGGAUAUAUACAUGAGGAUCACCCAUGUAGGUGCGGAUACUCGCACCAAUAAGUGUAGAAGGCGGUCUCAGCA [Eli eng2 - 058] (Eterna round: R96, puzzle: Exclusion NG 2)
apparent KD of MS2 coat protein (input ligand: FMN 200 uM): 10.7 nM
apparent KD of MS2 coat protein [1]: 13.1 nM
apparent KD of MS2 coat protein (input ligand: none): 13.3 nM

UGCGGGCUUUUGAGACCUCACAUGAGGAUCACCCAUGUGCUUGUCUUGUGGGUGGGUAGGUCGUUGGCUGACUCACG [Sensor-V1 #98] (Eterna round: R97, puzzle: Sensor, turn-off variant 1)
apparent KD of MS2 coat protein (input ligand: FMN 200 uM): 68.2 nM
apparent KD of MS2 coat protein (input ligand: none): 68.9 nM

AAAAUGUAAGGAUAUAGCCGGAACCCAGGGUCAAUACCCGGCUAGAAGGUACAUGAGGAUCACCCAUGUAAGAA [Excls4-VI] (puzzle: Exclusion 4)
apparent KD of MS2 coat protein [3]: 21.6 nM
apparent KD of MS2 coat protein [2]: 18.9 nM
apparent KD of MS2 coat protein [4]: 16.5 nM

UAUUAAUGCAAGGAUAUGCUAUUAAUUUUUUUUGCAGAAGGUGCAACAUGAGGAUCACCCAUGUUUGAGGGUAU [JR_E6_Sub029] (puzzle: Exclusion 6)
apparent KD of MS2 coat protein [2]: 55.9 nM

GGGCUGCGACACAGCCAAACAAAACAUGAGGAUCACCCAUGUCAGGAUAUACCGAUGCAGCAUCUGUAGAAGGGACAGAUCCAA [Lalaon] (Eterna round: R96, puzzle: Exclusion NG 3)
apparent KD of MS2 coat protein (input ligand: FMN 200 uM): 151 nM
apparent KD of MS2 coat protein [1]: 68.8 nM
apparent KD of MS2 coat protein (input ligand: none): 79.7 nM

AAGAAGAUCAAAGGAUAUGGAGCUGAAACGGAGCUAGAAGGUUGUCUAGUUUAACAUGAGGAUCACCCAUGUAGGUACCUCUAA [AK ExNG1-V2-1] (Eterna round: R96, puzzle: Exclusion NG 1)
apparent KD of MS2 coat protein (input ligand: FMN 200 uM): 850 nM
apparent KD of MS2 coat protein [1]: 719 nM
apparent KD of MS2 coat protein (input ligand: none): 713 nM

AAAUCGGUAGAGGAUAUUGUACAGGAAACGGUGCGAGAAGGUUACACAUGAGGAUCACCCAUGUUAAAUAGCGA [EX6 #54] (Eterna round: R97, puzzle: Exclusion 6)
apparent KD of MS2 coat protein (input ligand: FMN 200 uM): 17.9 nM
apparent KD of MS2 coat protein (input ligand: none): 18.4 nM

GUUUUCAGACGGAGAUCCGACAUGAGGAUCACCCAUGUCUCACAAGCUUUUUGCUCGUCUUAUACUCCUCUGUUCUC [Elimod 43 - Jieux - Sensor, turn-off variant 1] (Eterna round: R97, puzzle: Sensor, turn-off variant 1)
apparent KD of MS2 coat protein (input ligand: FMN 200 uM): 16.9 nM
apparent KD of MS2 coat protein (input ligand: none): 15.9 nM

GCAUACUAAGGAUAUACAUGAGGAUCACCCAUGUUGCCAAAUGGCAGCAUCACCUGGAGUAGAAGGUAGAUGUA [Atanbi] (puzzle: Exclusion 3)
apparent KD of MS2 coat protein [2]: 29.7 nM

AAAAAAUUGAGAGGAUAUGGUGCCGAAACGGUGCUAGAAGGUUUUAUAAAAAAACAUGAGGAUCACCCAUGUUCAUGUAAAAAA [AK ExNG1-1] (Eterna round: R96, puzzle: Exclusion NG 1)
apparent KD of MS2 coat protein (input ligand: FMN 200 uM): 17.2 nM
apparent KD of MS2 coat protein [1]: 16.1 nM
apparent KD of MS2 coat protein (input ligand: none): 18 nM

AAGAACCCGGUAGGAUAUAUUGUGGGCAAACAUGGAACAACAUGAGGAUCACCCAUGUAAUUUAGGUAGAAGGGCCAAAAGAGA [Default title] (Eterna round: R96, puzzle: Exclusion NG 2)
apparent KD of MS2 coat protein (input ligand: FMN 200 uM): 80.1 nM
apparent KD of MS2 coat protein [1]: 51.6 nM
apparent KD of MS2 coat protein (input ligand: none): 71.4 nM

GCAGCAUAGUUUACUAACUGUUACAUGAGGAUCACCCAUGUUUAGGAUAUGGUCUGGAUUACAGGCCAGAAGGGAACAAGCUGC [Eli exng3 - 032] (Eterna round: R96, puzzle: Exclusion NG 3)
apparent KD of MS2 coat protein [1]: 10.3 nM

UACAUGAGGAUCACCCAUGUUUUGUCGUGUAUGGUACCCGUUUAGGAUAUCGUGUUAUUGGACCGCGAGAAGGAGAGUAUCAUU [Excl-NG3-LRO05] (Eterna round: R96, puzzle: Exclusion NG 3)
apparent KD of MS2 coat protein (input ligand: FMN 200 uM): 24 nM
apparent KD of MS2 coat protein [1]: 30 nM
apparent KD of MS2 coat protein (input ligand: none): 31.6 nM

AGCCUACAUGAGGAUCACCCAUGUCAGGAUAUCUCGCGACAUGUCAAGUUCACGUUGCAGAGAAGGGACUCGGG [Ononxe] (Eterna round: R96, puzzle: Exclusion 1)
apparent KD of MS2 coat protein (input ligand: FMN 200 uM): 108 nM
apparent KD of MS2 coat protein [1]: 41 nM
apparent KD of MS2 coat protein (input ligand: none): 54.1 nM

CCAUGGGAGCGAGGAUAUAGCCCAUGGGAAGAGCUAGAAGGCGCUGACAUGAGGAUCACCCAUGUGUUCAUGAGGAGGUGGACA (Eterna round: R96, puzzle: Exclusion NG 1)
apparent KD of MS2 coat protein (input ligand: FMN 200 uM): 292 nM
apparent KD of MS2 coat protein [1]: 128 nM
apparent KD of MS2 coat protein (input ligand: none): 173 nM

GUAAUGUCAGGAUAUACUAAUGAUGAAUGAUCAGACAUUAUGUAGAAGGGACAUGAGGAUCACCCAUGUAAUAU [EX4 #4] (Eterna round: R97, puzzle: Exclusion 4)
apparent KD of MS2 coat protein (input ligand: FMN 200 uM): 49.3 nM
apparent KD of MS2 coat protein (input ligand: none): 28.4 nM

GUACGCUCAGGAUAUCAAGGGCUGUACAUGAGGAUCACCCAUGUUAUCUUGGUGUCAGCGUGAGAAGGGAGGGAAA [Xesoonesa] (puzzle: Exclusion 5)
apparent KD of MS2 coat protein [2]: 20.6 nM

GAGUGACAUGAGGAUCACCCAUGUGAGGAUAUCGGACGGACCAAAUUAACAACCGCCGCGAGAAGGCACAUCGG [Exclusion 1 V21] (puzzle: Exclusion 1)
apparent KD of MS2 coat protein [3]: 130 nM
apparent KD of MS2 coat protein [2]: 144 nM
apparent KD of MS2 coat protein [4]: 129 nM

AGUCGGCGAGGAUAUACAUGAGGAUCACCCAUGUAUGAUCCUAGACCUGUAGGUCCAUGUAGAAGGCGCUGACA [Exclusion 3 - Was a mod at one point v.3] (puzzle: Exclusion 3)
apparent KD of MS2 coat protein [2]: 66.2 nM

AUAGAUAUAGGAUAUGAGGUAUAGUACAUGAGGAUCACCCAUGUUGAUCGCAUGAACGAUUUAGAAGGAUACCUAA [Eternabot (L2) Solution 83] (Eterna round: R97, puzzle: Exclusion 5)
apparent KD of MS2 coat protein (input ligand: FMN 200 uM): 643 nM
apparent KD of MS2 coat protein (input ligand: none): 1310 nM

GAGCAGCGAGGAUAUACCUGGACCUGGUCCCAGGCCGAUCAACUUGAGGAUCACCCAAGUAGAAGGCGUGGCUC [Ceortiti] (Eterna round: R97, puzzle: Exclusion 2)
apparent KD of MS2 coat protein (input ligand: FMN 200 uM): 322 nM
apparent KD of MS2 coat protein (input ligand: none): 401 nM

AAUUUGCAAGCGAGAUCCCACAUGAGGAUCACCCAUGUGCUCGUCUUAUAAGGUACUGUGACGAGAGUCACGGUACC [Mat - Sensor, turn-off var - Eli Mod - D91] (Eterna round: R97, puzzle: Sensor, turn-off variant 1)
apparent KD of MS2 coat protein (input ligand: FMN 200 uM): 15.6 nM
apparent KD of MS2 coat protein (input ligand: none): 12.1 nM
